“Also recorded” adds a separate entry of the source.

In test [1] the test system is CHO-JAML and CHO-CAR cells. In words: CHO-JAML / CHO-CAR cell aggregation assay. The test is classed as cell-based. Conditions: for aggregation of mixed CHO-CAR and CHO-JAML cultures (number and size of clusters): antibodies 30 μg/ml, 1 hour at 37° C., FIG. 1D. The method, then: FIG. 1D. CHO-K1 cells stably transfected with either JAML (CHO-JAML) or CAR (CHO-CAR) proteins were allowed to aggregate (1 hour at 37° C. on a shaker at 50 RPM) separately (1×10^6 cells/BSA coated 3 ml Petri dish), or as a mix (5×10^5 each cell type/dish), in the absence or presence of anti-JAML monoclonal antibodies DW100, DW55 and DW216 (30 μg/ml). The number of clusters (left) and the area of the clusters (right) were quantified in 7 randomly chosen fields using light microscopy. The results are representative of four independent experiments. CHO-CAR and CHO-JAML in mixed cultures formed large aggregates.
Because certain antibodies recognize the membrane distal domain of JAML, their ability to inhibit binding to CAR was tested. By ELISA, the levels of soluble CAR-GST bound to immobilized sJAML-His preincubated with anti JAML antibodies was measured. […] Thus, these antibodies recognize three different epitopes on JAML and that both DW100 and DW55 bind epitopes close to the JAML binding site. Using a cell aggregation assay, the possibility that DW100 could inhibit the binding of JAML to CAR expressed on the surface of cells was examined. […] This again confirms previously described JAML binding to CAR, as well as the specificity of DW100 (blocking) and DW216 (non-blocking) Abs to JAML.

The next test deals with T84 and CACO-2 cells. In words: Cell adhesion assay, PMN and HL60 to epithelial monolayers. As to conditions: sJAML-His and mAbs 30 μg/ml, 1 hour. The test is classed as cell-based, human. The method, then: PMN cells were pre-labeled with CellTracker™ Green (CMFDA). Labeled cells (2.5×10^5/well) were allowed to adhere for 1 hour to T84 (white bars) and CACO-2 (black bars) cells grown to confluency in 24 well tissue culture microtiter wells, in the absence (NoTx) or presence of soluble JAML (sJAML-His), 30 μg/ml), anti-JAML monoclonal antibodies DW100 and DW216 (30 μg/ml), or alternatively to stable CACO-2 cells lacking CAR. Non-adherent HL60 cells and PMN were removed by 3 washes with HBSS. Adherent cells were harvested by treating the monolayers with trypsin, followed by lysis with 0.1% Triton 100×. Fluorescence intensity was measured using FluoStar Galaxy plate reader at excitation/emission wavelengths of 485/535 nm.
JAML-CAR interactions are involved in PMN adhesion to epithelium. […] Indeed adhesion of both HL-60 cells and PMNs to epithelium is partly dependent upon JAML-CAR binding. […] HL-60 cells and PMNs also adhered to a lesser degree to Caco2 cells where the expression of CAR was stably knocked down, confirming the specificity of the adhesion events to JAML-CAR interactions.
Epithelial cells (T84/Caco-2) were seeded on 24-well plates (10^6 cells/well) and cultured until they reached confluence. […] Fluorescence intensity was measured using FluoStar Galaxy plate reader at excitation/emission wavelengths of 485/535 nm. […]

Test [2] concerns T84 epithelial monolayers. In words: Scratch wound closure of epithelial monolayers. The test is classed as cell-based, human. As to conditions: for epithelial wound closure: T84 scratch wound, monitored over 72 h, FIG. 10. The method, then: T84 epithelial monolayers grown to confluence were wounded by introduction of a single linear scratch wound using a 20-μl plastic pipette tip. Wound closure was monitored over 72 h in the absence or presence of PMN or sJAML. The scale bar is 10 μm.
Whether JAML binding to CAR would affect epithelial wound restitution was investigated. […] If soluble JAML interactions with CAR play a role, the effect could be reversed with the addition of blocking DW100 mAb.
Cell grown in 24-well tissue culture plates received one linear wound using a 20-μl plastic pipette tip attached to low suction. Wounded monolayers were washed once with PBS to remove detached cells and debris, and incubated with the appropriate stimulus added to the medium. The rate of migration was measured by determining the wound area immediately after wounding (t=0) and at the indicated time points. The data are presented as the area of the wound at each time point normalized to t=0. The experiments were carried out in triplicates per condition, and the data shown are representative of 4 independent experiments.

Test [3] has as its system T84 intestinal epithelial cells. Kind of test: EdU incorporation cell proliferation at wound edge. As to conditions: FIG. 10C,D. The test is classed as cell-based, human. The method, then: FIG. 10C. Epithelial monolayers were wounded as described above and cell proliferation at the wound edge after 24 hours incubation with either sJAML or sSIRPa (30 μg/ml), with or without the addition of DW100 mAb was assessed by EdU incorporation assay. Data presented as proliferating cells (positively stained with EdU) out of all cells in the field multiplied by 100. Cells were counted in 7 randomly selected fields in 4 independent experiments.
JAML binding CAR to inhibit epithelial cell proliferation was investigated as a possible mechanism for impeding wound healing.
Cell proliferation was assessed in […] (EdU) incorporation assay, by using a Click-iT EdU Alexa 488 cell proliferation kit (Invitrogen). Cell apoptosis was assessed by staining with sulforhodamine labeled caspase inhibitor SR-VAD-FMK from APO LOGIX
Sulforhodamine Caspase Detection kit (Cell Technology). Scratch wounded or confluent cells were subjected to treatment as indicated in the figure were incubated for 24 hrs at 370 C before addition of EdU or APO LOGIX Sulforhodamine Caspase Detection kits. At least 5 random fields per each condition were analyzed, the data are presented as % proliferating/apoptotic cells out of total cells in the field.

B1: DW100: monoclonal anti-human JAML antibody (IgG1,κ), hybridoma ATCC PTA-13051; VH SEQ ID NO:19, VL SEQ ID NO:22 (antibody, V domains shown)
VH: DVQLVESGAELVRPGASKLSCKALAYTFTDYEMHWVKQTPVHGLEWIGIIHPGSGGTVYNQKFKGKATLTADKSSSTAYMELSSLTSEDSTVYYCTRRRYYGSSYNWYFDVWGAGN
VL: VLTQSPASLAASVGETVTITCRASENIYYSLAWYQQKQGKSPQLLIYNANSLEDGVPSRFSGSGSGTQYSLKINSMQPEDTATYFCEQTYDVPLTFGAGTKLEL
For B1, the “aggregation of CHO-JAML cells alone (JAML-JAML)” value in test [1] (FIG. 1) was “could not be blocked with DW100 mAb”. Besides, the “aggregation of mixed CHO-CAR and CHO-JAML cultures (number and size of clusters)” value in test [1] is “could be blocked with DW100; also recorded: significantly inhibited aggregation of mixed cultures of CHO transfectants; also recorded: significantly decreased both the size and the number of formed clusters”. The “adhesion of HL60 cells and PMN to epithelial monolayer” value in the test with T84 and CACO-2 cells (FIG. 8) is “decreased adhesion of HL60 cells and PMN to epithelial monolayer; also recorded: significantly decreased”. Also, in test [2] (T84, mAb 30 μg/ml, FIG. 10A,B), the “reversal of PMN or sJAML inhibition of wound closure” value is “reversed this inhibition; also recorded: significantly improved wound restitution”. Moreover, the “block of soluble JAML inhibition of proliferation” value in test [3] (EdU) is on record as “blocked by addition of DW100”.

B2: sJAML: recombinant soluble fragment of JAML.D1D2 tagged with 10 His residues at the C-terminus (protein)
chain: LNDLNVSPPELTVHVGDSALMGCVFQSTEDKCIFKIDWTLSPGEHAKDEYVLYYYSNLSVPIGRFQNRVHLMGDILCNDGSLLLQDVQEADQGTYICEIRLKGESQVFKKAVVLHVLPEEPKELMVHVGGLIQMGCVFQSTEVKHVTKVEWIFSGRRAKEEIVFRYYHKLRMSVEYSQSWGHFQNRVNLVGDIFRNDGSIMLQGVRESDGGNYTCSIHLGNLVFKKTIVLHVSPEEPRTL
Regarding B2, the “aggregation of mixed CHO-CAR and CHO-JAML cultures (number and size of clusters)” value in test [1] is on record as “blocked”. Moreover, the “adhesion of HL60 cells and PMN to epithelial monolayer” value in the test with T84 and CACO-2 cells (FIG. 8, listed as soluble JAML) is “decreased adhesion of HL60 cells and PMN to epithelial monolayer; also recorded: significantly decreased”. For the same molecule, the epithelial wound closure entry is “inhibited wound closure” in test [2]; “delayed both epithelial barrier recovery and wound restitution” in test [2] (listed as Soluble JAML). For the same molecule, the “proliferation of epithelial cells at wound edge (EdU)” value in test [3] (30 μg/ml, 24 hours) is “significantly inhibits proliferation of T84 intestinal epithelial cells”.

The values above are taken from patent publication US10465005B2, “JAML specific binding agents, antibodies, and uses related thereto” (Emory University, priority 2011, dated 2019).
